Test results reported in paper PMC2134809.

Target: profilin (Acanthamoeba)
Test: affinity chromatography

Chain of Arp2/3 complex (P53487 whole entry, looked up, one chain of several): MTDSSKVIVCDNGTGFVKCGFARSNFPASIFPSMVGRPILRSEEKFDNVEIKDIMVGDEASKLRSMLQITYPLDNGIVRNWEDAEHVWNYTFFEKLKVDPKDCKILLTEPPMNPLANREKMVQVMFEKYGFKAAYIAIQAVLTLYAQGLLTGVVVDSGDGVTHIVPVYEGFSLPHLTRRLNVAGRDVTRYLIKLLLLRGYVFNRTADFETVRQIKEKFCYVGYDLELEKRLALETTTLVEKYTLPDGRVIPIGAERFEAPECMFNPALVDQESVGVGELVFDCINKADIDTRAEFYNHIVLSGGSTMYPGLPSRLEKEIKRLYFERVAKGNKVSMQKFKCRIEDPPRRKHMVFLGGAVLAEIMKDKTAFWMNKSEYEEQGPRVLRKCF

Arp2/3 complex (from UniProt P53487 1-388)
percent of the complex bound to the column that holds profilin: 10%
